Consider four molecules from publication PMC10562830 (Science translational medicine, 2023).

Assay [1] concerns the target Chikungunya virus-like particles of the 37997 strain (Chikungunya virus, strain 37997, strain). The experiment in a line: cryo-EM structure.
Assay [2] has as its target recombinant p62-E1 protein derived from the CHIKV-LR 2006 strain (Chikungunya virus, LR 2006 …, UniProt Q1H8W5, strain). The experiment in a line: ELISA.

B1: 506.A08 Fab (Fab, V domains shown)
VH: EEQLVESGGGLVQPGGSLRLSCAASGFTFSSYSMNWVRQAPGKGLEWVSYISSSSSTIHYADSVKGRFTISRDNAKNSLYLQMNSLRAEDTAVYYCAREGNSGYEPLDYWGQGTLVTVS
VL: not shown
As to B1, the binding result in assay [1] is given as “binds”.

B2: 506.A08 (antibody, V domains shown)
VH: B1 VH
VL: not shown
As to B2, the binding result in assay [2] is “binds”.

B3: 506.C01 Fab (Fab, V domains shown)
VH: QVQLQESGPGLVKPSQTLSLTCTVSGGSISSDDYYWTWIRLPPGKGLEWIGYIFYTGGTYYNPSLKSRVTISLDRSKNQFSLKLSSVTAADTAVYFCARAPETYCSTTNCYKGYFDSWGQGTLVTVSS
VL: DIQMTQSPSSVSASVGDRVTITCRASQGISSWLGWYQQKPGKAPKLLIYAASSLQSGVPSRFSGSGSGTDFTLTISSLQPEDFATYYCQQANSFPRTFGQGTKVEIK
As to B3, in assay [1], the binding result is reported as “binds”.

B4: 506.C01 (antibody, V domains shown)
VH: B3 VH
VL: B3 VL
Regarding B4, the binding result in assay [2] is reported as “binds”.
